Target: T1, His-LEC1 (LEAFY COTYLEDON1) (Arabidopsis, UniProt Q9SFD8 1-238)
T1 construct: LEAFY COTYLEDON1 (LEC1), NF-Y transcription factor, Arabidopsis, AT1G21970; Vector pQE30; source: E. coli Rosetta DE3, purified (Ni-nitrilotriacetic acid agarose beads)
T1 sequence (looked up): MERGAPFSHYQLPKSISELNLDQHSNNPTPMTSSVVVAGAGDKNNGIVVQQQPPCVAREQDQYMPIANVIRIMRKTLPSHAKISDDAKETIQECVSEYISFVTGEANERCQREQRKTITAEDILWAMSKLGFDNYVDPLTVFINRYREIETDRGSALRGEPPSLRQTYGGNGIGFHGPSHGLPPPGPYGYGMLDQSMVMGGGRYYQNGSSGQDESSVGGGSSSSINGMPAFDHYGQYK
Assay: pull-down; 2 μg of His-LEC1 or His-GFP incubated with immobilized GST or GST fusion proteins; 50 mM Tris-HCl pH 8.0, 100 mM NaCl, 1 mM EDTA; 4°C, 4 h; detected with an anti-His antibody
Conditions: both partners purified

binding result: binds
B1: GST-TCL2 (TRICHOMELESS2) (natural protein, Arabidopsis, UniProt B3H4X8 1-100, looked up)
chain: MDNTNRLRHLRSRKQSKFTLGDTAEVNSVKWEFINMTEQEEDLIFRMHRLVGDRWDLIAGRVVGREAKDIERYWIMRNCDHCSHKRRRVHKFYRFSISPP
notes: TCL2, single-repeat R3 MYB protein, Arabidopsis, AT2G30424; Vector pGEX-4T-1; source: E. coli Rosetta DE3, purified (glutathione sepharose beads)
